Tested on: MS2 coat protein
Assay: apparent KD of MS2 coat protein; designed switch direction (-1 OFF switch, 1 ON switch): -1; higher = weaker reporter binding
Procedure, shortened: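 Normalised cluster fluorescence was curve-fitted, and each design's median over clusters is its apparent KD. Before this, SNAP-549-labelled MS2 coat protein was titrated from 0.7 or 1.5 nM, doubling to 3 µM, over RNA switches transcribed on Illumina chips by stalled E. coli RNA polymerase. Titrations had no input, 200 uM small-molecule ligand, or an oligonucleotide input, and steps lasted 0.8–1.5 h (lowest) to 10–20 min (highest).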

[1] = Eterna round: R95, input ligand: microRNA oligo, concentration not stated
[2] = Eterna round: R95, input ligand: FMN 200 uM
[3] = Eterna round: R95, input ligand: none
[4] = input ligand: microRNA oligo, concentration not stated

Sequence | apparent KD of MS2 coat protein [1] | apparent KD of MS2 coat protein (input ligand: FMN 200 uM) | apparent KD of MS2 coat protein (input ligand: none) | other results
UUUUACGUAGGAUAUACAUUUUUUUUAUUAUUUUCAUUAUUACAUGAGGAUCACCCAUGUAGAAGGACGAUUUU [My Design] (puzzle: Exclusion 2) | 25 nM | – | – | –
AAUAAGCGAGGAUAUACUAUUCCUCGACCGGCAGAAACCGGACUUGAGGAUCACCCAAGUAGAAGGCGCAAAAC [Oninso] (Eterna round: R97, puzzle: Exclusion 2) | – | 448 nM | 32.8 nM | –
UUUAAUUUUUUUUUUUUACAAGCUUUUUGCUCGUCUUAUACAUGAGGAUCACCCAUGUAGAUGGGAGAUAAAUUAUC [JMF 20] (puzzle: Sensor v3, turn-off variant 2) | 85.3 nM | – | – | apparent KD of MS2 coat protein [2]: 33.8 nM; apparent KD of MS2 coat protein [3]: 40.5 nM
UCAAGUAUGUAGGAUAUCGAUGUCUGCGGACAUCGAGAAGGACGUACAUGAGGAUCACCCAUGUAACUUGCAUG [Exclusion 6 - B - 10:c] (puzzle: Exclusion 6) | 70.9 nM | – | – | –
AGCCUACAUGAGGAUCACCCAUGUCAGGAUAUCUCGCGACAUGUCAAGUUCACGUUGCAGAGAAGGGACUCGGG [Ononxe] (puzzle: Exclusion 1) | 47.8 nM | – | – | –
AUCGUGUGAGGAUAUCGAUUAUGGAAGUCUAGGUCCAUACGCGAGAAGGCACAUGAGGAUCACCCAUGUAAUGG [jl-ex4-4.32 ViennaUCT mod] (Eterna round: R97, puzzle: Exclusion 4) | – | 29.8 nM | 486 nM | –
AGCUUUUUGUUCGUCUUACACAUGAGGAUCACCCAUGUGUUGGACCGCAUCGAUAGAUGUAGACCGAGAAGCAUGGG [Omdei Mir OFFv1 C8] (Eterna round: R97, puzzle: Sensor, turn-off variant 1) | – | 24.5 nM | 23.8 nM | –
GCCGGUGUUGCGGAUAAGCUUUUCUGCUCGUUUUAUCGCACAUGAGGAUCACCCAUGUCAUCCGUCAGCAUGCAAAC [Aredardi] (puzzle: Sensor v3, turn-off variant 2) | 40.7 nM | – | – | apparent KD of MS2 coat protein [2]: 26 nM; apparent KD of MS2 coat protein [3]: 25.6 nM
CAUUGACAUGAGGAUCACCCAUGUCAGGAUAUGCUUCAUGACACGAAAGUGUCAUGAAGCAGAAGGGACAUGCC [SS1 Omei 1] (puzzle: Exclusion 1) | 19.5 nM | – | – | –
GCUAGGAGUGUGAGGAUAUGCAGUUCCUUGGAACUGCAGAAGGCACAUGAGGAUCACCCAUGUGAAGACCUAGC [Mat - Exclusion 4 - JL Mod - D4] (Eterna round: R97, puzzle: Brourd's mod of Exclusion 4) | – | 212 nM | 26.6 nM | –
UCCUCACAUGAGGAUCACCCAUGUUAGGAUAUCUUAGAGCGCGAAUGACAGUUCUUUAAGAGAAGGAACUGGGC [Exclusion 1 (MOD1.2 of Edarti)] (Eterna round: R97, puzzle: Exclusion 1) | – | 50.5 nM | 20.1 nM | –
UUUCUGUGAGGAUAUCAGUAGUAAAUAAAUAAAAUUACUACUGAGAAGGCACAUGAGGAUCACCCAUGUUCCUU [salish99_ex3_r3_093] (puzzle: Exclusion 4) | 13.1 nM | – | – | –
GUGUACAGAGGAUAUACUUGAAUCUAGCGAAGCUAGGUUUGACAUGAGGAUCACCCAUGUAGAAGGCUGUACAC [Dot plot directed A v1] (puzzle: Exclusion 2) | 13.7 nM | – | – | –
GCGCAAACGCCAAAAGGCGAAACAACAUGAGGAUCACCCAUGUAGGAUAUCGAUUGCUUUGCAGUCGAGAAGGACAUAAUGCGC [JL ENG3 3.80 Mod 3] (Eterna round: R96, puzzle: Exclusion NG 3) | – | – | – | apparent KD of MS2 coat protein [4]: 11.9 nM
AAGAAACGAGGAUAUACAGUUGAGUGAGAGAGGGUAGUGUUACAUGAGGAUCACCCAUGUAGAAGGCGUGAGAG [JR_Exclu2_Sub089] (puzzle: Exclusion 2) | 31.5 nM | – | – | apparent KD of MS2 coat protein [2]: 52.7 nM; apparent KD of MS2 coat protein [3]: 32.7 nM
AGCUAGUGCCGAGGAUAUACAUGAGGAUCACCCAUGUAAGCCAGUCGGUUUCUGACUGGCAAUAUGUAGAAGGCGGCGUUGGCA [JL ENG2 1.49] (Eterna round: R96, puzzle: Exclusion NG 2) | – | 48.2 nM | 16.6 nM | apparent KD of MS2 coat protein [4]: 11.3 nM
UCGCUGCGAGGAUAUACGUGCGCGCGCUCGCGUUCGCGCGUACAUGAGGAUCACCCAUGUAGAAGGCGCGCUGC [Apr-15 SS2-5] (puzzle: Exclusion 2) | 11.1 nM | – | – | –
AGUAGUAGUAUCCGAUCUUACAUGAGGAUCACCCAUGUAGCUAGACGUGCACGCGAUGCUCGUCAGACUACCAGAUG [salish99_TOv1_r3_051] (puzzle: Sensor v3, turn-off variant 1) | 230 nM | – | – | apparent KD of MS2 coat protein [2]: 148 nM; apparent KD of MS2 coat protein [3]: 277 nM

Sequence | apparent KD of MS2 coat protein [1] | apparent KD of MS2 coat protein (input ligand: FMN 200 uM) | apparent KD of MS2 coat protein (input ligand: none) | other results
AUUGUGUUAGGAUAUGCUUAUGGUGGGUAGUCCAGUAUGGAGUAGAAGGGACAUGAGGAUCACCCAUGUGCUCA [EX4 #38] (Eterna round: R97, puzzle: Exclusion 4) | – | 215 nM | 137 nM | –
GCGUCGAGUGUGAGGAUAUGCUGGUCAUAAGAUCAGCAGAAGGCACAUGAGGAUCACCCAUGUGAAAACGAUGC [Mat - Exclusion 4 - JL Mod - D69] (puzzle: Brourd's mod of Exclusion 4) | 16.3 nM | – | – | apparent KD of MS2 coat protein [2]: 73.2 nM; apparent KD of MS2 coat protein [3]: 20.6 nM
CCGGAAUUACAGGAUAUAGGAGUCGAUAGACACCUAGAAGGGUAGACAUGAGGAUCACCCAUGUGUCCUACCGG [Fiskers Ex 6 - 85] (puzzle: Exclusion 6) | 176 nM | – | – | –
GCAUCCAAAGUGAGGAUAUACCUCUGGAUACAUAGGUAGAAGGCACAUGAGGAUCACCCAUGUUCCUAGGAUGC [Fiskers BMX 4 - 32] (puzzle: Brourd's mod of Exclusion 4) | 25 nM | – | – | –
AUAGGCUGUUUUGUUCGUCACAUGAGGAUCACCCAUGUCUCGAGACUGUGCUUACGUUGCGUGUAUAGUCCGGGUAU [Eternabot (L1) Solution 5] (Eterna round: R97, puzzle: Sensor, turn-off variant 1) | – | 34.1 nM | 36.3 nM | –
AAUAACUGAGGAUAUACUAAAAUAUGAAUAAAAUAAAUAAAACAUGAGGAUCACCCAUGUAGAAGGCAGAAUAA [JMF's Not so obvious solution 8] (puzzle: Exclusion 2) | 23.3 nM | – | – | apparent KD of MS2 coat protein [2]: 21.4 nM; apparent KD of MS2 coat protein [3]: 21.5 nM
UUAGUGUUAGGAUAUCCGGCUCCAAGGCACCAAAACCGGGCGGAGAAGGAACAUGAGGAUCACCCAUGUGACCA [Eternabot (Original) Solution 31] (Eterna round: R97, puzzle: Exclusion 4) | – | 53.7 nM | 49.1 nM | –
UCUGCCGCCGUGAGGAUAUGCCCGAAAAAACGCGGGCAGAAGGCACAUGAGGAUCACCCAUGUCCCGCGGUUUU [salish99_bmx4_r4_136] (Eterna round: R97, puzzle: Brourd's mod of Exclusion 4) | – | 31 nM | 15.8 nM | –
AAACCCAGAGGAUAUGCUGACUCCGACAUGAGGAUCACCCAUGUAGCGACUCUUCAUGCAGCAGAAGGUUGAUUUU [Eternabot (L1) Solution 66] (Eterna round: R97, puzzle: Exclusion 5) | – | 235 nM | 271 nM | –
CUGGACCGAGGAUAUAUUAUGUGAAACAUGAGGAUCACCCAUGUAAUAUGAUGGAUGUAAAUAGAAGGCGGUCUAG [Mat - Exclusion 5 - JL mod - D28] (puzzle: Exclusion 5) | 35.1 nM | – | – | apparent KD of MS2 coat protein [2]: 34.5 nM; apparent KD of MS2 coat protein [3]: 47.3 nM
UUCUUUAUACGAGGAUAUCAUACAUGAGGAUCACCCAUGUAACUGGGUCUAUUUUUAUAUAAUAUUGAGAAGGCGUUUUGCUAU [JR_ExcNG2_Sub071] (Eterna round: R96, puzzle: Exclusion NG 2) | – | 52.6 nM | 36.8 nM | apparent KD of MS2 coat protein [4]: 31.1 nM
GUGGGACAUGAGGAUCACCCAUGUCAGGAUAUUUGGGCGAGAUUCGAUCUCGUUAGCCGGAGAAGGGACGUAUG [Eternabot (L2) Solution 47] (Eterna round: R97, puzzle: Exclusion 1) | – | 34.7 nM | 25 nM | –
GCGCCAUCGUGAGAUGGCGUAAUUACAUGAGGAUCACCCAUGUAGGAUAUCGAUUGCUUUGCAGUCGAGAAGGGCAAGGUUUGU [JL ENG3 3.84] (Eterna round: R96, puzzle: Exclusion NG 3) | – | 25.7 nM | 30.9 nM | apparent KD of MS2 coat protein [4]: 19.9 nM
AGGUAGUCAGGAUAUUAGGAGUAGCGGGAUAACGCUACGAGUGAGAAGGGACAUGAGGAUCACCCAUGUUUUGU [JR_Ex4_Sub068] (Eterna round: R97, puzzle: Exclusion 4) | – | 24.3 nM | 23.1 nM | –
UACCUAUAGUAAGGAUAUCAUUGCGAUUAGCUAUGAGAAGGUACACAUGAGGAUCACCCAUGUCCUCCAAUUAACCGAAAGGUA [7th something] (Eterna round: R96, puzzle: Exclusion NG 1) | – | 318 nM | 178 nM | apparent KD of MS2 coat protein [4]: 170 nM
CGAUAAAAGACAGGAUAUGAGGAGAGAGAGAGAUCAGAAGGGUCACAUGAGGAUCACCCAUGUGAGUUCUCGAAAGGAAAGAGG [Prohibition 51 - Jieux - Exclusion NG 1] (Eterna round: R96, puzzle: Exclusion NG 1) | – | 21.4 nM | 23 nM | apparent KD of MS2 coat protein [4]: 15 nM
UUUUUAGUGCUUUUUAAGUACAUGAGGAUCACCCAUGUACUUGUCUGGUGGUCCGGACAAGCUUUUUGCUCGUCUAG [Sensor v3 - turn-off variant 1 - 3] (puzzle: Sensor v3, turn-off variant 1) | 29.4 nM | – | – | apparent KD of MS2 coat protein [2]: 32.4 nM; apparent KD of MS2 coat protein [3]: 36.4 nM

From the supplement of paper PMC9170038
